Reference: patent US8524454 (RESEARCH FOUNDATION OF STATE UNIVERSITY OF NEW YORK, dated 2013)

T1: recombinant extracellular fragment of TCblR produced in HEK 293 cells (human, UniProt Q9NPF0 32-247)
T1 construct: Highly glycosylated; also called EXC fragment of TCblR; recombinant TCblR extracellular domain
T1 sequence: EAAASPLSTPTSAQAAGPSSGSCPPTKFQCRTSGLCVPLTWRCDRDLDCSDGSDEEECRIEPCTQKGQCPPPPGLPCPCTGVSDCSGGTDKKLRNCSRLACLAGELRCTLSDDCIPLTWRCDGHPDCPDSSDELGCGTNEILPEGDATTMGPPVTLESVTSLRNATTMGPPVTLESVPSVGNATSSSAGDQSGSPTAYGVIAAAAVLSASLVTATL

T2: transcobalamin receptor (TCblR) purified from human placenta (human, UniProt Q9NPF0 32-282)
T2 construct: also called TCR; purified TCblR
T2 sequence: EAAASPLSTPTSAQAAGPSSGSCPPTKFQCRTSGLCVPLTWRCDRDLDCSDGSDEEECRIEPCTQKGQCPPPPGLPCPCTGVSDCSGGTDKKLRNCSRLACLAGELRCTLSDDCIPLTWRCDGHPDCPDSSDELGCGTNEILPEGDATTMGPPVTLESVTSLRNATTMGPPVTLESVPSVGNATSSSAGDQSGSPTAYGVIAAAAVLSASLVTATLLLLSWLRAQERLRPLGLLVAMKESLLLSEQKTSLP

B1: holo-transcobalamin (recombinant human TC saturated with cobalamin) (ligand, UniProt P20062 19-427, looked up)
chain: EMCEIPEMDSHLVEKLGQHLLPWMDRLSLEHLNPSIYVGLRLSSLQAGTKEDLYLHSLKLGYQQCLLGSAFSEDDGDCQGKPSMGQLALYLLALRANCEFVRGHKGDRLVSQLKWFLEDEKRAIGHDHKGHPHTSYYQYGLGILALCLHQKRVHDSVVDKLLYAVEPFHQGHHSVDTAAMAGLAFTCLKRSNFNPGRRQRITMAIRTVREEILKAQTPEGHFGNVYSTPLALQFLMTSPMRGAELGTACLKARVALLASLQDGAFQNALMISQLLPVLNHKTYIDLIFPDCLAPRVMLEPAAETIPQTQEIISVTLQVLSLLPPYRQSISVLAGSTVEDVLKKAHELGGFTYETQASLSGPYLTSVMGKAAGEREFWQLLRDPNTPLLQGIADYRPKDGETIELRLVSW
notes: also called TC-Cbl; holo TC
B2: recombinant extracellular (EXC) domain of TCblR produced in NSO myeloma cells, cleaved from the Fc fusion protein (receptor)
chain: SPLSTPTSAQAAGPSSGSCPPTKFQCRTSGLCVPLTWRCDRDLDCSDGSDEEECRIEPCTQKGQCPPPPGLPCPCTGVSDCSGGTDKKLRNCSRLACLAGELRCTLSDDCIPLTWRCDGHPDCPDSSDELGCGTNEILPEGDATTMGPPVTLESVTSLRNATTMGPPVTLESVPSVGNATSSSAGDQSGSPTAY
notes: Fully glycosylated; also called EXC fragment; EXC-TCblR; not shown: some amino acids of the original Fc fusion protein remained in the cleaved fragment; they are not specified

Tests used:
[1] = target: T1, recombinant extracellular fragment of …; assay: not described; extracellular fragment expressed in HEK 293 cells
[2] = target: T2, transcobalamin receptor (TCblR) …; assay: radiolabeled Cbl-TC binding to purified TCblR competed by unlabeled holo-TC or apo-TC (FIG. 12)
[3] = target: B1; assay: binding studies with the recombinant extracellular domain

Binder	fold higher affinity (holo-TC against the apo protein) [1] [fold]	fold difference in affinity (holo TC against apo TC) [2] [fold]	binding result [3]
B1	28	28	–
B2	–	–	binds
